Reference: US20250382373A1, “ANTI-EGFR/MET ANTIBODIES AND USES THEREOF” (Biocytogen Pharmaceuticals (Beijing) Co., Ltd., priority 2022, published 2025)

B1: Amivantamab: Amivantamab (Janssen, Reference No.: LFS0L03), bispecific antibody targeting EGFR and MET (antibody, chains of the INN, looked up, V domains shown)
VH: QVQLVESGGGVVQPGRSLRLSCAASGFTFSTYGMHWVRQAPGKGLEWVAVIWDDGSYKYYGDSVKGRFTISRDNSKNTLYLQMNSLRAEDTAVYYCARDGITMVRGVMKDYFDYWGQGTLVTVSS
VL: AIQLTQSPSSLSASVGDRVTITCRASQDISSALVWYQQKPGKAPKLLIYDASSLESGVPSRFSGSESGTDFTLTISSLQPEDFATYYCQQFNSYPLTFGGGTKVEIK
VH2: QVQLVQSGAEVKKPGASVKVSCETSGYTFTSYGISWVRQAPGHGLEWMGWISAYNGYTNYAQKLQGRVTMTTDTSTSTAYMELRSLRSDDTAVYYCARDLRGTNYFDYWGQGTLVTVSS
VL2: DIQMTQSPSSVSASVGDRVTITCRASQGISNWLAWFQHKPGKAPKLLIYAASSLLSGVPSRFSGSGSGTDFTLTISSLQPEDFATYYCQQANSFPITFGQGTRLEIK
B2: Telisotuzumab analog-ADC (conjugate, chains of the INN, looked up)
VH: QVQLVQSGAEVKKPGASVKVSCKASGYIFTAYTMHWVRQAPGQGLEWMGWIKPNNGLANYAQKFQGRVTMTRDTSISTAYMELSRLRSDDTAVYYCARSEITTEFDYWGQGTLVTVSS
VL: DIVMTQSPDSLAVSLGERATINCKSSESVDSYANSFLHWYQQKPGQPPKLLIYRASTRESGVPDRFSGSGSGTDFTLTISSLQAEDVAVYYCQQSKEDPLTFGGGTKVEIK
modifications: antibody-drug conjugate payload

Experiments:
[1] = tested on: patient-derived ampullary tumor fragments; assay: Human ampullary carcinoma PDX model; assay type: in vivo, B-NDG mice; settings: 10 mg/kg i.v. BIW x4
Method: The ADCs were tested for their effect in human ampullary carcinoma PDX model.
The mice were then injected with PBS, ADCs or Amivantamab (Janssen, Cat #: LFS0L03) by intravenous (i.v.) administration.

[2] = tested on: patient-derived gastric tumor fragments; assay: Human gastric cancer PDX model; assay type: in vivo, B-NDG mice; settings: 10 mg/kg i.v. BIW x6
Method: The mice were then injected with PBS, ADCs or Amivantamab (Janssen, Reference No.: LFS01L03) by intravenous (i.v.) administration.

NCI-H1975 cells = assay: NCI-H1975 xenograft in Balb/c nude mice; assay type: in vivo; settings: 10 mg/kg, BIW, 4 administrations, i.v.
Method: The mice were then injected with PBS, E-6C4-M-2F II-ADC (1.5 mg/kg, 3 mg/kg or 6 mg/kg, QW, 2 administrations in total) or Amivantamab (Janssen, Reference No.: LFS0L03) (10 mg/kg, BIW, 4 administrations in total) by intravenous (i.v.) administration.

NUGC-4 cells = assay: NUGC-4 xenograft model (gastric cancer); assay type: in vivo, B-NDG mice; settings: 3 mg/kg i.v. QW x2

Row | Molecule | Tumor volume Day 14 [1] | Tumor volume Day 21 [1] | TGI (%) ([1]; Day 21) | Tumor volume Day 0 ([1]; day of grouping) | Tumor volume Day 28 [2] | Tumor volume Day 56 [2] | TGI (%) ([2]; Day 56) | Tumor volume Day 0 ([2]; day of grouping) | Survival ([2]; surviving/total mice) | TGI (NCI-H1975 cells) | Tumor volume Day 14 (NUGC-4 cells) | TGI (%) (NUGC-4 cells; Day 28) | Tumor volume Day 0 (NUGC-4 cells; day of grouping) | Tumor volume Day 28 (NUGC-4 cells; end of experiment) | Tumor-free (Day 28) (NUGC-4 cells; number of tumor-free mice/total)
1 | B1 | 756 ± 78 mm^3 | 1047 ± 104 mm^3 | 8% | 273 ± 13 mm^3 | 40 ± 6 mm^3 | 643 ± 391 mm^3 | 86.3% | 262 ± 24 mm^3 | 5/5 | 12.9% | – | – | – | – | –
2 | B2 | – | – | – | – | – | – | – | – | – | – | 60 ± 10 mm^3 | 108.1% | 198 ± 14 mm^3 | 88 ± 67 mm^3 | 0/5
